“Also recorded” adds a separate entry of the source.
Test system: ATG8
Assay: in planta Co-IP, Vps4 with ATG8 (ATG8-2.2, ATG8-4, ATG8-4-S3)
Format: binding, Solanum tuberosum

B1: Vps4: potato vacuolar protein sorting 4; known as SKD1 in A. thaliana; ESCRT function (protein)
chain: MYSNFKEQAIEFVRQAVQEDNGGNYAKAFPLYMNALEYFKTHLKYEKNPKIKEAITQKFTEYLRRAEEIRAVLDEGGSGPGPNGGDAAVMAKPKTKPKDGEDGEDPEQSKLRAGLNSAIVREKPNVKWNDVAGLESAKQALQEAVILPVKFPQFFTGKRRPWRAFLLYGPPGTGKSYLAKAVATEAESTFFSVSSSDLVSKWMGESEKLVSNLFQMARESAPSIIFVDEIDSLCGQRGEGNESEASRRIKTELLVQMQGVGHNDDKVLVLAATNTPYALDQAIRRRFDKRIYIPLPDLKARQHMFKVHLGDTPHNLSESDFEDLARKTEGFSGSDVSVCVKDVLFEPVRKTQDAVFFTQTSNGTWIPCGPKQQGAVQTTMQELDAKGLASQIIPPPITKTDFDKVLARQRPTVSKSDLEVHDRFTKEFGEEG
For B1, the “dependence of Vps4 binding on the ATG8 first β-strand” value (Co-IP, ATG8-2.2, ATG8-4 and ATG8-4-S3) was “the role of the N-terminal β-strand region in conferring binding to AIM-containing proteins was confirmed; also recorded: The ATG8 region surrounding the first β-strand is responsible for discriminatory binding to potato Vps4” and the “interaction of Vps4 with ATG8” value (Vps4:3xMyc co-expressed with GFP:ATG8 in N. benthamiana, anti-GFP IP, immunoblot) was “direct interaction between Vps4 and ATG8”.
